Measured values as given in patent US20060292151A1, “L-SIGN polymorphisms and methods involving use of same” (priority 2004, published 2006).

Tested on: HCV pseudovirion entry
Test: HCV pseudovirion entry into target cells
Type: cell-based
Conditions: E1/E2-mediated entry of pseudovirions
From the text: The procedure of Bartosch et al. (2003b) was used to generate retroviral particles pseudotyped with HCV envelope glycoproteins (HCV pseudovirus particles; HCVpp). Briefly, in order to generate HCV pseudovirions, 293T cells were cotransfected with HIV-1-based (pLenti6, Invitrogen) or MMLV-based (pFB, Stratagene, La Jolla, Calif.) retroviral vectors and vectors expressing structural genes, including Gag, Pol and envelope glycoproteins (see FIG. 2). In addition, the HIV-1-based vector was cotransfected with a Rev-encoding plasmid to enable transport of genomic RNAs from the nucleus to the cytoplasm.
Antibodies against E2 as well as HCV+ sera inhibited E1/E2-mediated entry.

B1: soluble CD81 ECL2 peptide: soluble CD81 ECL2 peptide (peptide)
peptide: FVNKDQIAKDVKQFYDQALQQAVVDDDANNAKAVVKTFHETLDCCGSSTLTALTTSVLKNNLCPSGSNIISNLFKEDCHQKIDDLFSGK
inhibition of HCV pseudovirion entry: inhibited HCV pseudovirion entry
